Consider two molecules from publication PMC12089286, “LLPS REDIFINE allows the biophysical characterization of multicomponent condensates without tags or labels”.

Data set [1] addresses T1, PTBP1 (UniProt P26599 1-557). Briefly: EMSA; 1.5 mM Mg2+, 100 mM KCl, pH 8.0; EMSA: 20 mM HEPES pH 8.0, 100 mM KCl, 1.5 mM MgCl2, 10% glycerol, 0.5 mM DTT, native 10% TBE gel; NMR: PTBP1 in 10 mM sodium phosphate pH 6.5, 20 mM NaCl; Nu in 20 mM sodium phosphate pH 6.0, 50 mM NaCl; 298 K. To be noted: protein: recombinant; tags: pET28a; label: 5'-32P (EMSA); none (NMR); single-stranded. (In general: A gel shift assay detects complexes by their altered migration in electrophoresis.)

For data set [2], the target named is T1, PTBP1. Put plainly: NMR diffusion (REDIFINE); 1:1 soluble complex; koff 1.41 s-1, kon 3e6 M-1 s-1; 10 mM phosphate pH 6.5, 20 mM NaCl; EMSA: 20 mM HEPES pH 8.0, 100 mM KCl, 1.5 mM MgCl2, 10% glycerol, 0.5 mM DTT, native 10% TBE gel; NMR: PTBP1 in 10 mM sodium phosphate pH 6.5, 20 mM NaCl; Nu in 20 mM sodium phosphate pH 6.0, 50 mM NaCl; 298 K. Particulars: protein: recombinant; tags: pET28a; label: 5'-32P (EMSA); none (NMR); single-stranded.

In data set [3] the target is Nu(247-419) (SARS-CoV-2, UniProt P0DTC9 247-419). Put plainly: NMR (1D, DOSY). To be noted: protein: recombinant; chain copies: 2; label: none (NMR); 3' Cy5 (microscopy); hairpin.

B1: 3xUCUCU RNA (ssRNA)
RNA: GGGAGAUCUCUAAAAAUCUCUAAAAAUCUCUAAAAA
As a reminder, the Kd is the equilibrium constant for the complex coming apart. In the case of B1, the values for the Kd in data set [1] and in data set [2] were 490 ± 20 nM and 500 ± 100 nM, respectively.

B2: s2m RNA (structured_RNA)
RNA: GGUUCACCGAGGCCACGCGGAGUACGAUCGAGUGUACAGUGAACC
For B2, the binding result in data set [3] is given as “binds”.
